In patent US20260001928A1 (CORTERIA PHARMACEUTICALS, priority 2022, published 2026):
*1 amine or outer side, *2 acyl side, *3 side chain or, on linkers, in order; H or OH if unused. Primed or numbered codes have the meaning given here. Side-chain parts run from the residue outwards. [ ]: non-standard residue; d: D form. The star is where a group is joined. Thp′ = 4-amino-tetrahydro-2H-pyran-4-yl-acetic acid, O=C(CC1(N[*:1])CCOCC1)[*:2]; C18 diacid = O=C(O)CCCCCCCCCCCCCCCCC(=O)*; C16 diacid = O=C(O)CCCCCCCCCCCCCCC(=O)*; γGlu = O=C(O)[C@H](CCC(=O)[*:2])N[*:1]; Isovaleryl = CC(C)CC(=O)*; Api = NC1(C(=O)O)CCNCC1; Pentanoyl = CCCCC(=O)*; AEEA = NCCOCCOCC(=O)O; Aib = CC(C)(N)C(=O)O

T1: CRF1R receptor (UniProt P34998 24-415, limits assumed)
T1 sequence (looked up): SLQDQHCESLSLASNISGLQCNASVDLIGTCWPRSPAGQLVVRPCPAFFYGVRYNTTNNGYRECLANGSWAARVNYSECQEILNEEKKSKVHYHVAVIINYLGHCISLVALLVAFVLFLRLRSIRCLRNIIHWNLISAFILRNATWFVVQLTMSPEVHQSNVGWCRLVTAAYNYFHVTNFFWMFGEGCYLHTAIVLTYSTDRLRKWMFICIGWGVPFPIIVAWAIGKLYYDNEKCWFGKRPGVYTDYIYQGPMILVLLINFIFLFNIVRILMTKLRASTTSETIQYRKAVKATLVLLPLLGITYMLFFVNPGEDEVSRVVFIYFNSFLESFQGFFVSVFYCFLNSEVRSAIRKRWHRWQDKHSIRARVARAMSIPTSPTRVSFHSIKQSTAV

B1: SEQ ID NO 198 (peptide)
peptide: Ac-IVLSLD[dV]PIKLK([AEEA-AEEA-γGlu-C18 diacid])KILLEQEKQKKQREQAETN[Thp′]QILAQV-NH2
B2: SEQ ID NO 194 (peptide)
peptide: Pentanoyl-VLSLD[dV]PIKLK([γGlu-C18 diacid])KILLEQEKQK[Aib]QREQAETN[Aib]QILAQV-NH2
SMILES: CCCCC(=O)N[C@H](C(=O)N[C@@H](CC(C)C)C(=O)N[C@@H](CO)C(=O)N[C@@H](CC(C)C)C(=O)N[C@@H](CC(=O)O)C(=O)N[C@@H](C(=O)N1CCC[C@H]1C(=O)N[C@H](C(=O)N[C@@H](CCCCN)C(=O)N[C@@H](CC(C)C)C(=O)N[C@@H](CCCCNC(=O)CC[C@H](NC(=O)CCCCCCCCCCCCCCCCC(=O)O)C(=O)O)C(=O)N[C@@H](CCCCN)C(=O)N[C@H](C(=O)N[C@@H](CC(C)C)C(=O)N[C@@H](CC(C)C)C(=O)N[C@@H](CCC(=O)O)C(=O)N[C@@H](CCC(N)=O)C(=O)N[C@@H](CCC(=O)O)C(=O)N[C@@H](CCCCN)C(=O)N[C@@H](CCC(N)=O)C(=O)N[C@@H](CCCCN)C(=O)NC(C)(C)C(=O)N[C@@H](CCC(N)=O)C(=O)N[C@@H](CCCNC(=N)N)C(=O)N[C@@H](CCC(=O)O)C(=O)N[C@@H](CCC(N)=O)C(=O)N[C@@H](C)C(=O)N[C@@H](CCC(=O)O)C(=O)N[C@H](C(=O)N[C@@H](CC(N)=O)C(=O)NC(C)(C)C(=O)N[C@@H](CCC(N)=O)C(=O)N[C@H](C(=O)N[C@@H](CC(C)C)C(=O)N[C@@H](C)C(=O)N[C@@H](CCC(N)=O)C(=O)N[C@H](C(N)=O)C(C)C)[C@@H](C)CC)[C@@H](C)O)[C@@H](C)CC)[C@@H](C)CC)C(C)C)C(C)C
B3: SEQ ID NO 196 (peptide)
peptide: Ac-IVLSLD[dV]PIKLK([AEEA-AEEA-γGlu-C18 diacid])KILLEQEKQK[Aib]QREQAETN[Api]QILAQV-NH2
SMILES: CC[C@H](C)[C@H](NC(C)=O)C(=O)N[C@H](C(=O)N[C@@H](CC(C)C)C(=O)N[C@@H](CO)C(=O)N[C@@H](CC(C)C)C(=O)N[C@@H](CC(=O)O)C(=O)N[C@@H](C(=O)N1CCC[C@H]1C(=O)N[C@H](C(=O)N[C@@H](CCCCN)C(=O)N[C@@H](CC(C)C)C(=O)N[C@@H](CCCCNC(=O)COCCOCCNC(=O)COCCOCCNC(=O)CC[C@H](NC(=O)CCCCCCCCCCCCCCCCC(=O)O)C(=O)O)C(=O)N[C@@H](CCCCN)C(=O)N[C@H](C(=O)N[C@@H](CC(C)C)C(=O)N[C@@H](CC(C)C)C(=O)N[C@@H](CCC(=O)O)C(=O)N[C@@H](CCC(N)=O)C(=O)N[C@@H](CCC(=O)O)C(=O)N[C@@H](CCCCN)C(=O)N[C@@H](CCC(N)=O)C(=O)N[C@@H](CCCCN)C(=O)NC(C)(C)C(=O)N[C@@H](CCC(N)=O)C(=O)N[C@@H](CCCNC(=N)N)C(=O)N[C@@H](CCC(=O)O)C(=O)N[C@@H](CCC(N)=O)C(=O)N[C@@H](C)C(=O)N[C@@H](CCC(=O)O)C(=O)N[C@H](C(=O)N[C@@H](CC(N)=O)C(=O)NC1(C(=O)N[C@@H](CCC(N)=O)C(=O)N[C@H](C(=O)N[C@@H](CC(C)C)C(=O)N[C@@H](C)C(=O)N[C@@H](CCC(N)=O)C(=O)N[C@H](C(N)=O)C(C)C)[C@@H](C)CC)CCNCC1)[C@@H](C)O)[C@@H](C)CC)[C@@H](C)CC)C(C)C)C(C)C
B4: SEQ ID NO 9 (peptide)
peptide: Isovaleryl-VLSLD[dV]PIKLK([γGlu-C16 diacid])QILLKQERQKKQREQAEKNKQILEQV-NH2
SMILES: CC[C@H](C)[C@H](NC(=O)[C@H](CCC(N)=O)NC(=O)[C@H](CCCCNC(=O)CC[C@H](NC(=O)CCCCCCCCCCCCCCC(=O)O)C(=O)O)NC(=O)[C@H](CC(C)C)NC(=O)[C@H](CCCCN)NC(=O)[C@@H](NC(=O)[C@@H]1CCCN1C(=O)[C@H](NC(=O)[C@H](CC(=O)O)NC(=O)[C@H](CC(C)C)NC(=O)[C@H](CO)NC(=O)[C@H](CC(C)C)NC(=O)[C@@H](NC(=O)CC(C)C)C(C)C)C(C)C)[C@@H](C)CC)C(=O)N[C@@H](CC(C)C)C(=O)N[C@@H](CC(C)C)C(=O)N[C@@H](CCCCN)C(=O)N[C@@H](CCC(N)=O)C(=O)N[C@@H](CCC(=O)O)C(=O)N[C@@H](CCCNC(=N)N)C(=O)N[C@@H](CCC(N)=O)C(=O)N[C@@H](CCCCN)C(=O)N[C@@H](CCCCN)C(=O)N[C@@H](CCC(N)=O)C(=O)N[C@@H](CCCNC(=N)N)C(=O)N[C@@H](CCC(=O)O)C(=O)N[C@@H](CCC(N)=O)C(=O)N[C@@H](C)C(=O)N[C@@H](CCC(=O)O)C(=O)N[C@@H](CCCCN)C(=O)N[C@@H](CC(N)=O)C(=O)N[C@@H](CCCCN)C(=O)N[C@@H](CCC(N)=O)C(=O)N[C@H](C(=O)N[C@@H](CC(C)C)C(=O)N[C@@H](CCC(=O)O)C(=O)N[C@@H](CCC(N)=O)C(=O)N[C@H](C(N)=O)C(C)C)[C@@H](C)CC
B5: SEQ ID NO 195 (peptide)
peptide: Pentanoyl-VLSLD[dV]PIGLK([γGlu-C18 diacid])KILLEQEKQKKQREQAETN[Aib]QILAQV-NH2
SMILES: CCCCC(=O)N[C@H](C(=O)N[C@@H](CC(C)C)C(=O)N[C@@H](CO)C(=O)N[C@@H](CC(C)C)C(=O)N[C@@H](CC(=O)O)C(=O)N[C@@H](C(=O)N1CCC[C@H]1C(=O)N[C@H](C(=O)NCC(=O)N[C@@H](CC(C)C)C(=O)N[C@@H](CCCCNC(=O)CC[C@H](NC(=O)CCCCCCCCCCCCCCCCC(=O)O)C(=O)O)C(=O)N[C@@H](CCCCN)C(=O)N[C@H](C(=O)N[C@@H](CC(C)C)C(=O)N[C@@H](CC(C)C)C(=O)N[C@@H](CCC(=O)O)C(=O)N[C@@H](CCC(N)=O)C(=O)N[C@@H](CCC(=O)O)C(=O)N[C@@H](CCCCN)C(=O)N[C@@H](CCC(N)=O)C(=O)N[C@@H](CCCCN)C(=O)N[C@@H](CCCCN)C(=O)N[C@@H](CCC(N)=O)C(=O)N[C@@H](CCCNC(=N)N)C(=O)N[C@@H](CCC(=O)O)C(=O)N[C@@H](CCC(N)=O)C(=O)N[C@@H](C)C(=O)N[C@@H](CCC(=O)O)C(=O)N[C@H](C(=O)N[C@@H](CC(N)=O)C(=O)NC(C)(C)C(=O)N[C@@H](CCC(N)=O)C(=O)N[C@H](C(=O)N[C@@H](CC(C)C)C(=O)N[C@@H](C)C(=O)N[C@@H](CCC(N)=O)C(=O)N[C@H](C(N)=O)C(C)C)[C@@H](C)CC)[C@@H](C)O)[C@@H](C)CC)[C@@H](C)CC)C(C)C)C(C)C
B6: SEQ ID NO 197 (peptide)
peptide: Ac-IVLSLD[dV]PIKLK([AEEA-AEEA-γGlu-C18 diacid])KILLEQEKQK[Aib]QREQAETN[Aib]QILAQV-NH2
SMILES: CC[C@H](C)[C@H](NC(C)=O)C(=O)N[C@H](C(=O)N[C@@H](CC(C)C)C(=O)N[C@@H](CO)C(=O)N[C@@H](CC(C)C)C(=O)N[C@@H](CC(=O)O)C(=O)N[C@@H](C(=O)N1CCC[C@H]1C(=O)N[C@H](C(=O)N[C@@H](CCCCN)C(=O)N[C@@H](CC(C)C)C(=O)N[C@@H](CCCCNC(=O)COCCOCCNC(=O)COCCOCCNC(=O)CC[C@H](NC(=O)CCCCCCCCCCCCCCCCC(=O)O)C(=O)O)C(=O)N[C@@H](CCCCN)C(=O)N[C@H](C(=O)N[C@@H](CC(C)C)C(=O)N[C@@H](CC(C)C)C(=O)N[C@@H](CCC(=O)O)C(=O)N[C@@H](CCC(N)=O)C(=O)N[C@@H](CCC(=O)O)C(=O)N[C@@H](CCCCN)C(=O)N[C@@H](CCC(N)=O)C(=O)N[C@@H](CCCCN)C(=O)NC(C)(C)C(=O)N[C@@H](CCC(N)=O)C(=O)N[C@@H](CCCNC(=N)N)C(=O)N[C@@H](CCC(=O)O)C(=O)N[C@@H](CCC(N)=O)C(=O)N[C@@H](C)C(=O)N[C@@H](CCC(=O)O)C(=O)N[C@H](C(=O)N[C@@H](CC(N)=O)C(=O)NC(C)(C)C(=O)N[C@@H](CCC(N)=O)C(=O)N[C@H](C(=O)N[C@@H](CC(C)C)C(=O)N[C@@H](C)C(=O)N[C@@H](CCC(N)=O)C(=O)N[C@H](C(N)=O)C(C)C)[C@@H](C)CC)[C@@H](C)O)[C@@H](C)CC)[C@@H](C)CC)C(C)C)C(C)C

Columns and labels:
[1] = molecular target: T1, CRF1R receptor; experiment: cell-based or functional assay
[2] = molecular target: human corticotropin-releasing factor 2a (CRF2a receptor) (human), Q13324; experiment: cell-based or functional assay
Chain of human corticotropin-releasing factor 2a (CRF2a receptor) (human), Q13324 (Q13324 20-411): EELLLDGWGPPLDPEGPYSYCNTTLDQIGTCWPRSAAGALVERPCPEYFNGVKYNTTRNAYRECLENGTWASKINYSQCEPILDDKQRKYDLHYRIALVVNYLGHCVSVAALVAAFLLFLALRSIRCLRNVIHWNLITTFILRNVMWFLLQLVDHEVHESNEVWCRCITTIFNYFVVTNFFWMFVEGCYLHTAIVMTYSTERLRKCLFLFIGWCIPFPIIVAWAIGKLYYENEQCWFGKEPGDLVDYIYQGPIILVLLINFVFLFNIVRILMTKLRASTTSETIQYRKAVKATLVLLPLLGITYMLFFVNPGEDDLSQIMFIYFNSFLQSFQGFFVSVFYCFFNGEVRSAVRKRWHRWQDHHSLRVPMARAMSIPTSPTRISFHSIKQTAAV

Binder	EC50 [1]	Emax (% I) [1]	EC50 [nM] (cAMP) [2]
B1	> 250 nM	8%	1.7 nM
B2		10%	0.44 nM
B3		9%	2.2 nM
B4	28.2 nM	77%	0.16 nM
B5	180 nM	42%	0.21 nM
B6		5%	1.28 nM
